Experiment [1] addresses recombinant Myc-Mm_RanQ69L(GTP) (Mus musculus, UniProt P62827 1-216, Q69L). The experiment in a line: pull-down; purified GST-Mm_Bt (2.8 μg) on glutathione-Sepharose beads incubated with purified Myc-RanQ69L (5 μg) loaded with 2 mM GTP, binding buffer, 4 °C, 2 h. As to conditions: both partners purified.
Another experiment concerns the target GST-Mm_RanQ69L (Mus musculus, UniProt P62827 1-216, Q69L). Briefly: pull-down; competition: 0.1, 1, 10 μg recombinant Mm_Bt added to 10 μg GST-RanQ69L on glutathione beads in embryo lysate holding FLAG-importin β; read-out is the importin β pulled down. To be noted: both partners purified.

B1: GST-Mm_Bt (domain or fragment)
chain: PVPPRLLTEEEYRIQGEVETQKALQELREFCNSPECSAWKTISRIQSPKRFADFVEGSFHLTPNEVSVHEQEYGLGSIFTQDEELSSEEEGSEYPTFTQNNFLT
As for B1, the binding result in experiment [1] is on record as “binds”.

B2: recombinant Mm_Bt (domain or fragment)
chain: PVPPRLLTEEEYRIQGEVETQKALQELREFCNSPECSAWKTISRIQSPKRFADFVEGSFHLTPNEVSVHEQEYGLGSIFTQDEELSSEEEGSEYPTFTQNNFLT
notes: source: recombinant
For the molecule B2, in the experiment with GST-Mm_RanQ69L, the binding result is “binds”.
